This assay addresses 3xFLAG-FL-NOPCHAP1 (human) (UniProt Q8N5I9). Description: co-IP.

3xFLAG-FL-NOPCHAP1 (human), sequence (Q8N5I9 whole entry): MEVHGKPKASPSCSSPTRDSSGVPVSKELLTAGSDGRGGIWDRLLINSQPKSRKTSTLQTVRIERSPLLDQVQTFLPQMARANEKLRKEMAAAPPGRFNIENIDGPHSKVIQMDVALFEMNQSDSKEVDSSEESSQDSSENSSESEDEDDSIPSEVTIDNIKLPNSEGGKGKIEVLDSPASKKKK
RL-NOP56-WT, sequence (O00567 whole entry): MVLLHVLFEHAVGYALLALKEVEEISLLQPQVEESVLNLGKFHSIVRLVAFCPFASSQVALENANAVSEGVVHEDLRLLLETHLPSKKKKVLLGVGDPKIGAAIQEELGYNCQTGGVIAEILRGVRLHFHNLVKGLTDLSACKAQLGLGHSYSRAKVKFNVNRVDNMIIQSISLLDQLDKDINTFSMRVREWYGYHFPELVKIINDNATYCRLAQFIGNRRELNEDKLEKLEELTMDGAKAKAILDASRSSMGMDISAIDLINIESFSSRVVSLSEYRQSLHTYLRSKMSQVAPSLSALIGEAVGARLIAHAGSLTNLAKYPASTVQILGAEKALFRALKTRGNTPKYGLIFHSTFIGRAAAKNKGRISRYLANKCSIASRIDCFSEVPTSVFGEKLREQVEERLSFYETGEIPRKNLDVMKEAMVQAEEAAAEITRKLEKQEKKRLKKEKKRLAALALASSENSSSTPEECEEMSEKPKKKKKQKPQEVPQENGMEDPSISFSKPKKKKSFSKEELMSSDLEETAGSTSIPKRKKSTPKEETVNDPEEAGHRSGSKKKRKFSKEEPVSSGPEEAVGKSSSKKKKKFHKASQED

Consider “RL-NOP56-WT (from UniProt O00567 1-594) (natural protein)”, for which the co-IP efficiency is less than 0.05%.
